Here are results for two substances from patent publication US20250382373A1, “ANTI-EGFR/MET ANTIBODIES AND USES THEREOF” (Biocytogen Pharmaceuticals (Beijing) Co., Ltd., priority 2022, published 2025).

Experiment [1] concerns the target human EGFR on CHO-S-hEGFR cells (human) (UniProt P00533). Nature of the experiment: flow cytometry on CHO-S-hEGFR cells (evaluated as No binding). In general terms: Flow cytometry measures light scatter and fluorescence of single cells or particles in a stream.
For experiment [2], the target named is human MET on hMET-NIH3T3 cells (human) (UniProt P08581). Nature of the experiment: flow cytometry on hMET-NIH3T3 cells (evaluated as No binding).
Sequence of human MET on hMET-NIH3T3 cells (human) (P08581 25-1390 limits assumed): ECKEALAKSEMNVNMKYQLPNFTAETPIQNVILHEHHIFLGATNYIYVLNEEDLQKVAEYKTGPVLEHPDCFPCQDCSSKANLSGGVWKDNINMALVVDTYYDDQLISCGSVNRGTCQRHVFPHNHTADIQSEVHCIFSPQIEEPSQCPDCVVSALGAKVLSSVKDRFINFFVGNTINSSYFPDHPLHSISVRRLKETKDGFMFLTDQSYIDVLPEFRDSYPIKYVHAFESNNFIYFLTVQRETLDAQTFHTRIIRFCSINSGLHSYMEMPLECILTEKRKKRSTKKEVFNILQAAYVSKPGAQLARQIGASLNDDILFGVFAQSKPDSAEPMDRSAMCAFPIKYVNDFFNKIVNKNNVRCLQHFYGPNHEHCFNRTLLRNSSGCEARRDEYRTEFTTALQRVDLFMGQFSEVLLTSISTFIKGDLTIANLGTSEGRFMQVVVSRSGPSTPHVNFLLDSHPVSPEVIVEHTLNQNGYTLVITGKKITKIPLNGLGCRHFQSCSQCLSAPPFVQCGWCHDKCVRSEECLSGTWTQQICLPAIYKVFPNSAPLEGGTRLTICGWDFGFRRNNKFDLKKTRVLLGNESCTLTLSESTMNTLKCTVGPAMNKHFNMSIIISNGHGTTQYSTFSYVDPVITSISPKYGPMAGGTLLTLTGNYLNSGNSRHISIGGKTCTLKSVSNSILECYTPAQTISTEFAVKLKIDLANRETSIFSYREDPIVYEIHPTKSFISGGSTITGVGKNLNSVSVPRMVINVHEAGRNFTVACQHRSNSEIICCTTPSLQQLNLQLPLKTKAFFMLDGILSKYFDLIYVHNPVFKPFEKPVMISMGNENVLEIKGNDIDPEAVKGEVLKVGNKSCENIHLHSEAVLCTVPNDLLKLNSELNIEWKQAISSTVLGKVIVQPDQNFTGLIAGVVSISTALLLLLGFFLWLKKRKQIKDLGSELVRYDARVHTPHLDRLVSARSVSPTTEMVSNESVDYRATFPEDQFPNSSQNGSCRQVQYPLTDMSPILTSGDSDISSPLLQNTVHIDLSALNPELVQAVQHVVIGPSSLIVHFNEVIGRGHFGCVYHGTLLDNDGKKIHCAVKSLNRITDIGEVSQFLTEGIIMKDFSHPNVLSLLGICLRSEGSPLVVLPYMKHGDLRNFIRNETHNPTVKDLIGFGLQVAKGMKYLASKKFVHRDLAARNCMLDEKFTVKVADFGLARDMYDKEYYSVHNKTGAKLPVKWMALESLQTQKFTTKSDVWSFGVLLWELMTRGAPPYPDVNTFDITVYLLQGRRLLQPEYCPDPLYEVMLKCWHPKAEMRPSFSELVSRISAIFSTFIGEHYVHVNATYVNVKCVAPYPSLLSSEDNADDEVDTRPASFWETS
In experiment [3] the target is monkey EGFR on CHO-S-fasEGFR cells (monkey (crab-eating macaque; Macaca fascicularis)) (UniProt P55245). Nature of the experiment: flow cytometry on CHO-S-fasEGFR cells (evaluated as No binding).
Experiment [4] deals with dog MET on dMET-NIH3T3 cells (dog (Canis lupus, printed 'Cans lupus')) (UniProt Q75ZY9). Nature of the experiment: flow cytometry on dMET-NIH3T3 cells (evaluated as No binding).
Experiment [5] has as its target monkey MET on fasMET-NIH3T3 cells (monkey (Macaca fascicularis)). Nature of the experiment: flow cytometry on fasMET-NIH3T3 cells (evaluated as No binding).
The target is the same in experiment [6]. The experiment is described as above. The source holds these as a separate data set.
Experiment [7] deals with human MET on SNU-5 cells (human) (UniProt P08581). Nature of the experiment: flow cytometry on SNU-5 cells (evaluated as No binding).
Sequence of human MET on SNU-5 cells (human) (P08581 25-1390): as the sequence (P08581 25-1390 limits assumed) above
Experiment [8] deals with monkey EGFR on CHO-S-fasEGFR cells (monkey (crab-eating macaque; Macaca fascicularis)) (UniProt P55245). Nature of the experiment: flow cytometry on CHO-S-fasEGFR cells (evaluated as No binding). This is another data set of the same source.
The target in experiment [9] is His-tagged monkey MET (monkey). Nature of the experiment: SPR (Biacore 8K), Protein A chip.

Where two headings read alike, the source gives them in different places.

Sequence of monkey MET on fasMET-NIH3T3 cells (monkey (Macaca fascicularis)) (chain, as listed by the source limits assumed): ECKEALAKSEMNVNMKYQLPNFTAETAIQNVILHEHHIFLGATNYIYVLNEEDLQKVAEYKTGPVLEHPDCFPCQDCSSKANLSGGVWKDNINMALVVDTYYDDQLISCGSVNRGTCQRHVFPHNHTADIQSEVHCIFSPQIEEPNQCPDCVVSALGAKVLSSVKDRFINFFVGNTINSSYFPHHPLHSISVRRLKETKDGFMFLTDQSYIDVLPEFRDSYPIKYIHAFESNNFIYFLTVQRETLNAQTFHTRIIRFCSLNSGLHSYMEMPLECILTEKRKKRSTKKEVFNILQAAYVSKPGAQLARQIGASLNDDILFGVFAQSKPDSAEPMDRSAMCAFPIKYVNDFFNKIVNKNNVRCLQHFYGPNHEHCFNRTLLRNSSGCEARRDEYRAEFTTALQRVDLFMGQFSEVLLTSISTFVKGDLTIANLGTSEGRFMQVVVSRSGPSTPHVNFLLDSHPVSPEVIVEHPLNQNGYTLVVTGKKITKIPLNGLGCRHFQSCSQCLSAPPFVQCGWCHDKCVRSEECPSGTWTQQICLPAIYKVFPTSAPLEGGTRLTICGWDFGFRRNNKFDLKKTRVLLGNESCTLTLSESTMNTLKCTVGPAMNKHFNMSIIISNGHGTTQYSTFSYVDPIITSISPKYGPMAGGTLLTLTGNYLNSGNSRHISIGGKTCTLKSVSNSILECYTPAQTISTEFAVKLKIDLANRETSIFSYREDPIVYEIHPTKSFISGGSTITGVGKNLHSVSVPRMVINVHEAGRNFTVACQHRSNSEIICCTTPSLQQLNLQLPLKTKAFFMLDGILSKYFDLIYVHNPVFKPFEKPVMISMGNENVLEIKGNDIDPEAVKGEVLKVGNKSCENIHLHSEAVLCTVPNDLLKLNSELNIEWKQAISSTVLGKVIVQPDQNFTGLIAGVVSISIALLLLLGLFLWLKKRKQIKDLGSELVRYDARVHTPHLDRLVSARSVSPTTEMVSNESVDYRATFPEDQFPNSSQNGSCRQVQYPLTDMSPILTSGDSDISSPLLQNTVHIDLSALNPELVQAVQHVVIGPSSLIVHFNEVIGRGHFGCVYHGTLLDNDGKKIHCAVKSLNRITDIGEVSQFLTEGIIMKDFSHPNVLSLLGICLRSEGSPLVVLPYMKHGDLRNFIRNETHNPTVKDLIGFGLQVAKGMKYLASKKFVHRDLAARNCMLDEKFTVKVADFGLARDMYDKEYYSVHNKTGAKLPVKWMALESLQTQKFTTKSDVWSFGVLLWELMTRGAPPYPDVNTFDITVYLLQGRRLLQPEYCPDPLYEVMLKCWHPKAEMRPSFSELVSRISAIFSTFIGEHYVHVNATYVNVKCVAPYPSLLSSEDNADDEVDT

On to NC, for which the Percentage of Positive Cells in [1] was 0%; in [2], 1.01%; in experiment [3] it was 0.65%; in experiment [4], 0.29%; in experiment [5], 0.8%; in experiment [6], 1.29%. Also, the Percentage of Positive Cells in [7] amounted to 2.5%; in [8], 0.2%.

With Telisotuzumab analog (antibody), in experiment [9], the dissociation constant Kd (in general, the constant that tells how readily two partners part at equilibrium) was 1.5 nM; the koff (commonly the first-order rate constant of dissociation) stood at 9.41e-05 s⁻¹; the kon (commonly the second-order rate constant of association) was determined as 62600 M⁻¹ s⁻¹.
